From patent US11230581B2, “Peptides and combination of peptides for use in immunotherapy against ovarian cancer and other cancers” (Immatics Biotechnologies GmbH, priority 2015, dated 2022)

These substances were tested against HLA-A*02:01 (Homo sapiens, UniProt P04439, D140Y/D185E/D98H/E176V/E277Q/G131W/G231S/I119V/I121R/I166T/I218V/L300P/L318F/N151K/N90K/P208A/P217A/Q86G/Q94H/R138H/R169H/T345S) (assay: MHC binding assay (UV-ligand exchange, β2m ELISA, peptide exchange yield)). Settings: binding of HLA-class I restricted peptides to HLA-A*02:01, UV-ligand exchange.
In short: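 Peptide-MHC complexes formed by UV-ligand exchange, cleaving a UV-sensitive placeholder peptide in favour of the test peptide. Exchange yield measured by ELISA: monomers diluted 100-fold onto streptavidin-coated plates, 1 h 37 °C, detected with 2 ug/ml HRP anti-β2m and TMB, absorbance at 450 nm.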

Row | Substance | Peptide exchange (MHC class I binding score, peptide exchange yield)
1 | 605 (KLYEAVPQL; listed as Homo sapiens) [compound 605] | “+++” (≥50 = +++)
2 | 609 (ALWKQLLEL; listed as Homo sapiens) [compound 609] | “+++” (≥50 = +++)
3 | 610 (LLAPTPYIIGV; listed as Homo sapiens) [compound 610] | “+++” (≥50 = +++)
4 | 612 (YLYNEGLSV; listed as Homo sapiens) [compound 612] | “+++” (≥50 = +++)
5 | 616 (VLIDEVESL; listed as Homo sapiens) [compound 616] | “+++” (≥50 = +++)
6 | 619 (ALQDRVPLA; listed as Homo sapiens) [compound 619] | “+++” (≥50 = +++)
7 | 620 (KLLNKIYEA; listed as Homo sapiens) [compound 620] | “++++” (≥75% = ++++)
8 | 621 (VLMDRLPSLL; listed as Homo sapiens) [compound 621] | “++++” (≥75% = ++++)
9 | 622 (RLLGEEVVRVLQA; listed as Homo sapiens) [compound 622] | “+++” (≥50 = +++)
10 | 635 (SLDSTLHAV; listed as Homo sapiens) [compound 635] | “+++” (≥50 = +++)

Further lines, results first:

Row | Peptide exchange (MHC class I binding score, peptide exchange yield) | Substance
11 | “+++” (≥50 = +++) | 604 (SILDRDDIFV; listed as Homo sapiens) [compound 604]
12 | “+++” (≥50 = +++) | 606 (ALWETEVYI; listed as Homo sapiens) [compound 606]
13 | “+++” (≥50 = +++) | 607 (RLYSGISGLEL; listed as Homo sapiens) [compound 607]
14 | “+++” (≥50 = +++) | 608 (SLLSVSHAL; listed as Homo sapiens) [compound 608]
15 | “++++” (≥75% = ++++) | 611 (YLLDDGTLVV; listed as Homo sapiens) [compound 611]
16 | “+++” (≥50 = +++) | 613 (RLLPPGAVVAV; listed as Homo sapiens) [compound 613]
17 | “+++” (≥50 = +++) | 614 (LLLPDQPPYHL; listed as Homo sapiens) [compound 614]
18 | “++” (≥20% = ++) | 615 (VLPPDTDPA; listed as Homo sapiens) [compound 615]
19 | “+++” (≥50 = +++) | 617 (ALMYESEKVGV; listed as Homo sapiens) [compound 617]
20 | “+++” (≥50 = +++) | 618 (VLFDSESIGIYV; listed as Homo sapiens) [compound 618]
21 | “+++” (≥50 = +++) | 623 (YLVEDIQHI; listed as Homo sapiens) [compound 623]
